Measurements from IntAct's records for PubMed 29039417.

B1: BBSome complex member BBS1 (Homo sapiens), Q8NFJ9 (parent)
chain: MAAASSSDSDACGAESNEANSKWLDAHYDPMANIHTFSACLALADLHGDGEYKLVVGDLGPGGQQPRLKVLKGPLVMTESPLPALPAAAATFLMEQHEPRTPALALASGPCVYVYKNLRPYFKFSLPQLPPNPLEQDLWNQAKEDRIDPLTLKEMLESIRETAEEPLSIQSLRFLQLELSEMEAFVNQHKSNSIKRQTVITTMTTLKKNLADEDAVSCLVLGTENKELLVLDPEAFTILAKMSLPSVPVFLEVSGQFDVEFRLAAACRNGNIYILRRDSKHPKYCIELSAQPVGLIRVHKVLVVGSTQDSLHGFTHKGKKLWTVQMPAAILTMNLLEQHSRGLQAVMAGLANGEVRIYRDKALLNVIHTPDAVTSLCFGRYGREDNTLIMTTRGGGLIIKILKRTAVFVEGGSEVGPPPAQAMKLNVPRKTRLYVDQTLREREAGTAMHRAFQTDLYLLRLRAARAYLQALESSLSPLSTTAREPLKLHAVVQGLGPTFKLTLHLQNTSTTRPVLGLLVCFLYNEALYSLPRAFFKVPLLVPGLNYPLETFVESLSNKGISDIIKVLVLREGQSAPLLSAHVNMPGSEGLAAA
partner: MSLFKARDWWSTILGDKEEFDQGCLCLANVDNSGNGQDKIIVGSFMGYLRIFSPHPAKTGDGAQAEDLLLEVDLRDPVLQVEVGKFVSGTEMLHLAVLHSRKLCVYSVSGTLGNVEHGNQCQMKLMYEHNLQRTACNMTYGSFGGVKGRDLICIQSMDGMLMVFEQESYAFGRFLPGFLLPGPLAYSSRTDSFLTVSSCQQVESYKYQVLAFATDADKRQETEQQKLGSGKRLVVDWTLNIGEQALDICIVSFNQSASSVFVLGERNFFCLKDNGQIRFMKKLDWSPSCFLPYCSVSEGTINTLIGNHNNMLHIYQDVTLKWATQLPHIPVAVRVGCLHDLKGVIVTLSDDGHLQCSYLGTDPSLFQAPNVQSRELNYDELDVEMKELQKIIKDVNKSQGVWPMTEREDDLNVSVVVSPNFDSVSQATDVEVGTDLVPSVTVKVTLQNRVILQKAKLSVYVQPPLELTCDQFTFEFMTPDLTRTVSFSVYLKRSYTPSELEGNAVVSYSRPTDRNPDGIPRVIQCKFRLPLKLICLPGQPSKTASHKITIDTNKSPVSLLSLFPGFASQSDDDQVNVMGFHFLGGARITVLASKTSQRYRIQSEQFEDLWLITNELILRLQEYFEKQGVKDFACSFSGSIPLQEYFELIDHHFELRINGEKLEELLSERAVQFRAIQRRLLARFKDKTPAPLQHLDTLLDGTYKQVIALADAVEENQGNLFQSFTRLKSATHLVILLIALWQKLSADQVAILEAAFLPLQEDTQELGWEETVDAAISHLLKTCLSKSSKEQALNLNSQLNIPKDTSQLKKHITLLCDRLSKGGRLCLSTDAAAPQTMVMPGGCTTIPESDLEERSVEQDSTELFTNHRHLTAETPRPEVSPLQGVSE

Variants of: B1
Conditions: with pthb1_human BBS9, Q3SYG4

Effect of a mutation on the interaction, disrupting interaction strength:
G516A
V537E
V537K
Y546E
L530D
L530R
L530T
L530K
L530V
L530Q
L530A
L530N
L530E
P542K
L518P
S554E
S509L
F521K
F521E
V552E
V552K
L527P
L548E
V519K
V519E
Y528C
Y528A
Y528K
Y528E
P538L
L517K
L517E
L540K
L540E
N524A
L539K
L539E
L539A
Y523E
Y523A

Effect of a mutation on the interaction, with no effect:
G516E
G516K
V537A
Y546K
Y546A
P542A
P542E
E553A
E553K
L518K
L518E
L518A
S554K
S554A
A533E
A533K
N557E
N557A
N557K
V541A
V541K
V541E
L544A
L544K
L544E
S509E
S509K
E549A
E549K
E525K
E525A
S561E
S561K
S561A
N545E
N545K
N545A
P547A
P547K
P547E
F521A
F551E
F551K
F551A
D562A
D562K
D562E
S556K
S556A
S556E
V552A
L527A
L527E
L527K
I560E
I560A
I560K
V514K
V514E
V514A
L548A
L548K
P513E
P513K
P513A
R512A
R512K
R512E
K536A
K536E
F534A
F534E
F534K
V519A
A526E
A526K
S529E
S529K
S529A
F535A
F535E
F535K
L515A
L515E
L515K
P538K
P538A
P538E
T550K
T550A
T550E
L555K
L555E
L555A
T511A
T511K
T511E
C520E
C520A
C520K
G543K
G543A
G543E
L517A
T510K
T510A
T510E
L540A
K558E
K558A
R532A
R532E
R532K
N524K
N524E
P531K
P531E
P531A
L522K
L522A
L522E
G559K
G559A
G559E
Y523K

Variants of: B1
Conditions: with pthb1_human BBS9, Q3SYG4
Remark: another data set of the same source

Effect of a mutation on the interaction, disrupting interaction strength:
Y546K

Variants of: B1
Conditions: with pthb1_human BBS9, Q3SYG4
Remark: another data set of the same source

Effect of a mutation on the interaction, with no effect:
L548E
